Measurements as given in paper PMC11170914, “A distinct dimer configuration of a diatom Get3 forming a tetrameric complex with its tail-anchored membrane cargo” (BMC Biology, 2024).

B1: Get3 from yeast (recombinant Get3/TA complex) (natural protein, UniProt Q12154 1-354, looked up)
chain: MDLTVEPNLHSLITSTTHKWIFVGGKGGVGKTTSSCSIAIQMALSQPNKQFLLISTDPAHNLSDAFGEKFGKDARKVTGMNNLSCMEIDPSAALKDMNDMAVSRANNNGSDGQGDDLGSLLQGGALADLTGSIPGIDEALSFMEVMKHIKRQEQGEGETFDTVIFDTAPTGHTLRFLQLPNTLSKLLEKFGEITNKLGPMLNSFMGAGNVDISGKLNELKANVETIRQQFTDPDLTTFVCVCISEFLSLYETERLIQELISYDMDVNSIIVNQLLFAENDQEHNCKRCQARWKMQKKYLDQIDELYEDFHVVKMPLCAGEIRGLNNLTKFSQFLNKEYNPITDGKVIYELEDKE
notes: Get3 of yeast; also called yeast Get3; source: recombinant, purified as Get3/TA complex
B2: Get3 from zebra fish (recombinant Get3/TA complex) (natural protein)
chain: not shown
notes: Get3 of zebra fish (Danio rerio); also called zebra fish Get3; source: recombinant, purified as Get3/TA complex

Biological target: the molecule itself
Test: SEC; recombinant Get3/TA complex from yeast or zebra fish; SEC and SDS-PAGE (Fig. S10); conditions not shown

Protein	stoichiometry N
B1	2
B2	2
